Biological target: T1, DLL4 ECD His tag (UniProt Q9NR61 27-529, limits assumed)
T1 construct: extracellular domain; also called DLL ECD His tag
Assay: SPR (Biacore), DVD-Ig captured, DLL4 as analyte

B1: DVD489 (bispecific antibody, human IgG1, kappa, L234A L235A)
heavy: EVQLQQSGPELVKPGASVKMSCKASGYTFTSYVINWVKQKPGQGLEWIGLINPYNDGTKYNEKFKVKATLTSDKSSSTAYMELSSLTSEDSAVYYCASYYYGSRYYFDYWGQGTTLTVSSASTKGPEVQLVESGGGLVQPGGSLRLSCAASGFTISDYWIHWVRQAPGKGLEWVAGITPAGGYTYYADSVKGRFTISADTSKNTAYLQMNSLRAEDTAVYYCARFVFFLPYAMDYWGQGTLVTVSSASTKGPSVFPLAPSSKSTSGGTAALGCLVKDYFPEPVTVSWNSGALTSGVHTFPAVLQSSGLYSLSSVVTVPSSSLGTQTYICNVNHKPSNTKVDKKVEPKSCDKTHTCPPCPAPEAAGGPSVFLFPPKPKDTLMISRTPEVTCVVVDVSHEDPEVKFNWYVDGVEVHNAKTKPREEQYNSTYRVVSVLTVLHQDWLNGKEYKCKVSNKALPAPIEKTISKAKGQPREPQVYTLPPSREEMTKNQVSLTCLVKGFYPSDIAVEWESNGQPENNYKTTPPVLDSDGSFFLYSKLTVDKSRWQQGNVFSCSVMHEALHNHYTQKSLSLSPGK
light: DIQMTQSSSYLSVSLGGRVTITCKASDHINNWLAWYQQKPGNAPRLLISGATSLETGVPSRFSGSGSGKDYTLSITSLQTEDVATYYCQQYWSIPLTFGAGTKLELKRTVAAPDIQMTQSPSSLSASVGDRVTITCRASQDVSTAVAWYQQKPGKAPKLLIYSASFLYSGVPSRFSGSGSGTDFTLTISSLQPEDFATYYCQQSYTTPPTFGQGTKVEIKRTVAAPSVFIFPPSDEQLKSGTASVVCLLNNFYPREAKVQWKVDNALQSGNSQESVTEQDSKDSTYSLSSTLTLSKADYEKHKVYACEVTHQGLSSPVTKSFNRGEC
notes: HC linker short, LC linker short; also called DVD-Ig DVD489
B1 was tested, and the Kd was 0.283 nM, the koff was 8.38e-05 s⁻¹ and the kon was 296000 M⁻¹ s⁻¹.

B2: DVD501 (bispecific antibody, human IgG1, kappa)
heavy: not shown
light: B1 light
notes: HC linker long, LC linker short; also called DVD-Ig DVD501
For B2, the Kd was 0.302 nM, the koff was 8.14e-05 s⁻¹ and the kon was 270000 M⁻¹ s⁻¹.

B3: DVD495 (bispecific antibody, human IgG1, kappa)
heavy: not shown
light: DIQMTQSSSYLSVSLGGRVTITCKASDHINNWLAWYQQKPGNAPRLLISGATSLETGVPSRFSGSGSGKDYTLSITSLQTEDVATYYCQQYWSIPLTFGAGTKLELKRTVAAPSVFIFPPDIQMTQSPSSLSASVGDRVTITCRASQDVSTAVAWYQQKPGKAPKLLIYSASFLYSGVPSRFSGSGSGTDFTLTISSLQPEDFATYYCQQSYTTPPTFGQGTKVEIKRTVAAPSVFIFPPSDEQLKSGTASVVCLLNNFYPREAKVQWKVDNALQSGNSQESVTEQDSKDSTYSLSSTLTLSKADYEKHKVYACEVTHQGLSSPVTKSFNRGEC
notes: HC linker long, LC linker long; also called DVD-Ig DVD495
Binder B3 has a Kd of 0.263 nM, a koff of 7.91e-05 s⁻¹ and a kon of 301000 M⁻¹ s⁻¹.

B4: DVD507 (bispecific antibody, human IgG1, kappa, L234A L235A)
heavy: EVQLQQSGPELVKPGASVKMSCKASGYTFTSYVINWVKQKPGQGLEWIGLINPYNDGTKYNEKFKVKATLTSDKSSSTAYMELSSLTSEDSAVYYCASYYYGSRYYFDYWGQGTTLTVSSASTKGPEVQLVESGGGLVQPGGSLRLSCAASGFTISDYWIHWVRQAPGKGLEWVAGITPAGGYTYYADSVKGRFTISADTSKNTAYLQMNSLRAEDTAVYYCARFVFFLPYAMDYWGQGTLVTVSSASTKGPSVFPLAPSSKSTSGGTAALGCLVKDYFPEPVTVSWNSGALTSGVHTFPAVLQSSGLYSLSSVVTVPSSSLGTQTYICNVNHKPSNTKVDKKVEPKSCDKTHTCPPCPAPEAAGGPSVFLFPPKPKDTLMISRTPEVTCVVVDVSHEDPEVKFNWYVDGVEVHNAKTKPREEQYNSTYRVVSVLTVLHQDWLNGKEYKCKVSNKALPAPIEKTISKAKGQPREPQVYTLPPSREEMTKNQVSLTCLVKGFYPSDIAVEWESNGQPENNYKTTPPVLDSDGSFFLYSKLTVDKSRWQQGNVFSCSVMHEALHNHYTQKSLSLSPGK
light: B3 light
notes: HC linker short, LC linker long; also called DVD-Ig DVD507
In the case of B4, the Kd is reported as 0.265 nM, the koff is reported as 7.16e-05 s⁻¹ and the kon is reported as 270000 M⁻¹ s⁻¹.

B5: DVD455 (bispecific antibody, human IgG1, kappa)
heavy: not shown
light: DIVMTQSPDSLAVSLGERATISCRASESVDNYGISFMKWFQQKPGQPPKLLIYAASNQGSGVPDRFSGSGSGTDFTLTISSLQAEDVAVYYCQQSKEVPWTFGGGTKVEIKRTVAAPDIQMTQSPSSLSASVGDRVTITCRASQDVSTAVAWYQQKPGKAPKLLIYSASFLYSGVPSRFSGSGSGTDFTLTISSLQPEDFATYYCQQSYTTPPTFGQGTKVEIKRTVAAPSVFIFPPSDEQLKSGTASVVCLLNNFYPREAKVQWKVDNALQSGNSQESVTEQDSKDSTYSLSSTLTLSKADYEKHKVYACEVTHQGLSSPVTKSFNRGEC
notes: HC linker long, LC linker short; also called DVD-Ig DVD455
B5 was tested, and the Kd was 4.7 nM, the koff was 0.000604 s⁻¹ and the kon was 129000 M⁻¹ s⁻¹.

B6: DVD472 (bispecific antibody, human IgG1, kappa)
heavy: not shown
light: DIQMTQSPSSLSASVGDRVTITCRASQDVSTAVAWYQQKPGKAPKLLIYSASFLYSGVPSRFSGSGSGTDFTLTISSLQPEDFATYYCQQSYTTPPTFGQGTKVEIKRTVAAPSVFIFPPDIQMTQSPSSLSASVGDRVTITCRASQDVSTAVAWYQQKPGKAPKLLIYSASFLYSGVPSRFSGSGSGTDFTLTISSLQPEDFATTYYCQQSYTGTVTFGQGTKVEIKRTVAAPSVFIFPPSDEQLKSGTASVVCLLNNFYPREAKVQWKVDNALQSGNSQESVTEQDSKDSTYSLSSTLTLSKADYEKHKVYACEVTHQGLSSPVTKSFNRGEC
notes: HC linker long, LC linker long; also called DVD-Ig DVD472
B6 showed a Kd of 0.881 nM, a koff of 8.64e-05 s⁻¹ and a kon of 98000 M⁻¹ s⁻¹.

B7: DVD484 (bispecific antibody, human IgG1, kappa)
heavy: not shown
light: B6 light
notes: HC linker short, LC linker long; also called DVD-Ig DVD484
Binder B7 has a Kd of 2.96 nM, a koff of 0.000295 s⁻¹ and a kon of 99700 M⁻¹ s⁻¹.

B8: DVD519 (bispecific antibody, human IgG1, kappa, lambda)
heavy: not shown
light: QAVVTQESALTTSPGETVTLTCRSSTGAVTTSNYANWVQEKPDHLFTGLIGGTNNRAPGVPARFSGSLIGDKAALTITGAQTEDEAIYFCALWYSNHWVFGGGTKLTVLGQPKAAPSVTLFPPDIQMTQSPSSLSASVGDRVTITCRASQDVSTAVAWYQQKPGKAPKLLIYSASFLYSGVPSRFSGSGSGTDFTLTISSLQPEDFATYYCQQSYTTPPTFGQGTKVEIKRTVAAPSVFIFPPSDEQLKSGTASVVCLLNNFYPREAKVQWKVDNALQSGNSQESVTEQDSKDSTYSLSSTLTLSKADYEKHKVYACEVTHQGLSSPVTKSFNRGEC
notes: HC linker long, LC linker long; also called DVD-Ig DVD519
B8 gave a Kd of 2.83 nM, a koff of 0.000472 s⁻¹ and a kon of 167000 M⁻¹ s⁻¹.

B9: DVD531 (bispecific antibody, human IgG1, kappa, lambda)
heavy: not shown
light: B8 light
notes: HC linker short, LC linker long; also called DVD-Ig DVD531
Binder B9 has a Kd of 3.47 nM, a koff of 0.000858 s⁻¹ and a kon of 248000 M⁻¹ s⁻¹.

B10: DVD513 (bispecific antibody, human IgG1, kappa)
heavy: not shown
light: QAVVTQESALTTSPGETVTLTCRSSTGAVTTSNYANWVQEKPDHLFTGLIGGTNNRAPGVPARFSGSLIGDKAALTITGAQTEDEAIYFCALWYSNHWVFGGGTKLTVLGQPKAAPDIQMTQSPSSLSASVGDRVTITCRASQDVSTAVAWYQQKPGKAPKLLIYSASFLYSGVPSRFSGSGSGTDFTLTISSLQPEDFATYYCQQSYTTPPTFGQGTKVEIKRTVAAPSVFIFPPSDEQLKSGTASVVCLLNNFYPREAKVQWKVDNALQSGNSQESVTEQDSKDSTYSLSSTLTLSKADYEKHKVYACEVTHQGLSSPVTKSFNRGEC
notes: HC linker short, LC linker short; also called DVD-Ig DVD513
B10 showed a Kd of 2.5 nM, a koff of 0.000677 s⁻¹ and a kon of 271000 M⁻¹ s⁻¹.

B11: DVD525 (bispecific antibody, human IgG1, kappa)
heavy: not shown
light: B10 light
notes: HC linker long, LC linker short; also called DVD-Ig DVD525
B11 was tested, and the Kd was 2.57 nM, the koff was 0.00122 s⁻¹ and the kon was 475000 M⁻¹ s⁻¹.

B12: DVD444 (bispecific antibody, human IgG1, kappa)
heavy: not shown
light: DIQMTQSPSSLSASVGDRVTITCRASQDVSTAVAWYQQKPGKAPKLLIYSASFLYSGVPSRFSGSGSGTDFTLTISSLQPEDFATYYCQQSYTTPPTFGQGTKVEIKRTVAAPDIVMTQSPDSLAVSLGERATISCRASESVDNYGISFMKWFQQKPGQPPKLLIYAASNQGSGVPDRFSGSGSGTDFTLTISSLQAEDVAVYYCQQSKEVPWTFGGGTKVEIKRTVAAPSVFIFPPSDEQLKSGTASVVCLLNNFYPREAKVQWKVDNALQSGNSQESVTEQDSKDSTYSLSSTLTLSKADYEKHKVYACEVTHQGLSSPVTKSFNRGEC
notes: HC linker short, LC linker short; also called DVD-Ig DVD444
B12 was tested, and the Kd was 2.37 nM, the koff was 0.00034 s⁻¹ and the kon was 143000 M⁻¹ s⁻¹.

B13: DVD461 (bispecific antibody, human IgG1, kappa)
heavy: not shown
light: DIVMTQSPDSLAVSLGERATISCRASESVDNYGISFMKWFQQKPGQPPKLLIYAASNQGSGVPDRFSGSGSGTDFTLTISSLQAEDVAVYYCQQSKEVPWTFGGGTKVEIKRTVAAPSVFIFPPDIQMTQSPSSLSASVGDRVTITCRASQDVSTAVAWYQQKPGKAPKLLIYSASFLYSGVPSRFSGSGSGTDFTLTISSLQPEDFATYYCQQSYTTPPTFGQGTKVEIKRTVAAPSVFIFPPSDEQLKSGTASVVCLLNNFYPREAKVQWKVDNALQSGNSQESVTEQDSKDSTYSLSSTLTLSKADYEKHKVYACEVTHQGLSSPVTKSFNRGEC
notes: HC linker short, LC linker long; also called DVD-Ig DVD461
Work on B13 yielded a Kd of 4.69 nM, a koff of 0.000538 s⁻¹ and a kon of 115000 M⁻¹ s⁻¹.

B14: DVD466 (bispecific antibody, human IgG1, kappa)
heavy: not shown
light: DIQMTQSPSSLSASVGDRVTITCRASQDVSTAVAWYQQKPGKAPKLLIYSASFLYSGVPSRFSGSGSGTDFTLTISSLQPEDFATYYCQQSYTTPPTFGQGTKVEIKRTVAAPDIQMTQSPSSLSASVGDRVTITCRASQDVSTAVAWYQQKPGKAPKLLIYSASFLYSGVPSRFSGSGSGTDFTLTISSLQPEDFATTYYCQQSYTGTVTFGQGTKVEIKRTVAAPSVFIFPPSDEQLKSGTASVVCLLNNFYPREAKVQWKVDNALQSGNSQESVTEQDSKDSTYSLSSTLTLSKADYEKHKVYACEVTHQGLSSPVTKSFNRGEC
notes: HC linker short, LC linker short; also called DVD-Ig DVD466
In the case of B14, the Kd is reported as 1.25 nM, the koff is reported as 0.000139 s⁻¹ and the kon is reported as 111000 M⁻¹ s⁻¹.

B15: DVD478 (bispecific antibody, human IgG1, kappa)
heavy: not shown
light: B14 light
notes: HC linker long, LC linker short; also called DVD-Ig DVD478
Work on B15 yielded a Kd of 2.22 nM, a koff of 0.000167 s⁻¹ and a kon of 75200 M⁻¹ s⁻¹.

From US20100260668A1 (published 2010)
